Data from article PMC8562849 (The Journal of Cell Biology, 2021).
Each block holds one molecule with its values, some of them ahead of it.

Legend:
Pin1 (GST-Pin1) = Pin1 (GST-Pin1) (UniProt Q13526); test: GST-Pin1 pull-down from U2OS lysate; conditions: reference: SST-MTAP (wild type); sites S398,S405,T408
spindly = spindly (UniProt Q96EA4); test: SBP affinity purification, immunoblot; conditions: reference: SST-MTAP, sites S398,S405,T408
[1] = molecular target: GST-tagged Pin1 (prolyl isomerase interacting NIMA 1) (UniProt Q13526 1-163); test: pull-down

Molecule: hLIC1 (dynein light intermediate chain 1) (from UniProt Q9Y6G9) AAA-MTAP
- binding against the reference (Pin1 (GST-Pin1)): weaker

B1: purified rLIC1-CTD (aa 389-523), phosphorylated in vitro by cdk1-cyclin B (domain or fragment, rat, UniProt Q9QXU8 389-523, looked up)
chain: TAAGRPVDASPRVPGGSPRTPNRSVSSNVASVSPIPAGSKKIDPNMKAGATSEGVLANFFNSLLSKKTGSPGGPGVGGSPGGGAAGASTSLPPSAKKSGQKPVLSDVHAELDRITRKPASVSPTTPPSPTEGEAS
modifications: phosphorylated in vitro by cdk1-cyclin B (three cdk1 sites S398, S405, T408)
- binding result [1]: binds

Other lines, results leading:

- binding against the reference (spindly; metaphase lysate): weaker
Molecule: hLIC1 (dynein light intermediate chain 1) (from UniProt Q9Y6G9) AAA-MTAP, metaphase lysate

- binding against the reference (spindly; prometaphase lysate): weaker
Molecule: hLIC1 (dynein light intermediate chain 1) (from UniProt Q9Y6G9) AAA-MTAP, prometaphase lysate
